This is an account of results in patent US20030064070A1.

For this assay, the target named is recombinant human TNFα (rhTNF) (human) (UniProt P01375). The assay can be described thus: cell-based or functional assay.
Chain of UniProt P01375 (P01375 77-233 limits assumed): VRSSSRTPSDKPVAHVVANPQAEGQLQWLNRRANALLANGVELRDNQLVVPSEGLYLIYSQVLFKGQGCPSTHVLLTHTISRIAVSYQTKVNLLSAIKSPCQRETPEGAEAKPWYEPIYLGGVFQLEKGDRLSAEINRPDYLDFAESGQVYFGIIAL

B1: chimeric mouse/human IgG1 anti-platelet mAb (7E3) (antibody, INN chains, looked up, V domains shown)
VH: EVQLQQSGTVLARPGASVKMSCEASGYTFTNYWMHWVKQRPGQGLEWIGAIYPGNSDTSYIQKFKGKAKLTAVTSTTSVYMELSSLTNEDSAVYYCTLYDGYYVFAYWGQGTLVTVSA
VL: EIVLTQSPVTLSVTPGDSVSLSCRASRDISNNLHWFQQTSHESPRLLIKYASQSMSGIPSRFSGSGSGTDFTLSINSVETEDFGMYFCQQTNSWPYTFGGGTKLEIK
modifications: IgG1
Turning to B1, the IL-6 in supernatant of FS-4 fibroblasts, TNF 0.3 ng/ml, antibody 4 µg/ml is 1.6 ng/mL; the IL-6 in supernatant of FS-4 fibroblasts, TNF 1.5 ng/ml, antibody 4 µg/ml was 1.96 ng/mL; the IL-6 in supernatant of FS-4 fibroblasts, TNF 7.5 ng/ml, antibody 4 µg/ml is 2.16 ng/mL.
